From US20090105116A1

Experiments:
human α-thrombin (human) [1] = molecular target: human α-thrombin (human) (UniProt P00734); assay: cell-based or functional assay
human α-thrombin (human) [2] = molecular target: human α-thrombin (human) (UniProt P00734); assay: amidolytic assay with chromogenic substrate S-2238, Lineweaver-Burk, 25° C.
[3] = molecular target: P3182, Bbs-R-(D-Pip)-Gly-Glu-Gln-Lys-Leu-Ile-Ser-Glu-Glu-Asp-Leu-Gly-Asp-Phe-Glu-Glu-Ile-Pro-Glu-Glu-Tyr-Leu-Gln; assay: cell-based or functional assay
Chain of P3182, Bbs-R-(D-Pip)-Gly-Glu-Gln-Lys-Leu-Ile-Ser-Glu-Glu-Asp-Leu-Gly-Asp-Phe-Glu-Glu-Ile-Pro-Glu-Glu-Tyr-Leu-Gln (peptide, as listed by the source, form in doubt): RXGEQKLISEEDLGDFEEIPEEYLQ

## P3170, Bbs-R-(D-Pip)-Gly-(Ser-Pro-His-Tyr(P)-Glu-Lys-Val-Ser-Gly)-Asp-Phe-Glu-Glu-Ile-Pro-Glu-Glu-Tyr-Leu-Gln (peptide)
Human α-thrombin (human) [1]
  IC50, nM (25° C.), fibrinogen clotting assay: 0.7 nM
Human α-thrombin (human) [2]
  Ki: 1.5 nM

## P3172-P3165, disulfide-linked Bbs-Arg-(D-Pip)-Gly-Cys...Cys-(Gly-Ser)8-Gly-Asp-Phe-Glu-Glu-Ile-Pro-Glu-Glu-Tyr-Leu-Gln (peptide)
Human α-thrombin (human) [1]
  IC50, nM (37° C.), fibrinogen clotting assay: 1.1 nM

## P3291, Bbs-Arg-dPip-Gly-Arg-Lys-Ser-Leu-Thr-Ile-Tyr-Ala-Gln-Val-Gln-Lys-Gly-Asp-Phe-Glu-Glu-Ile-Pro-Glu-Glu-Tyr-Leu-Gln (peptide)
Human α-thrombin (human) [1]
  IC50, nM, fibrinogen clotting assay (the text says 25° C.): 7 nM

## anti-c-myc antibody 9E10 (Sigma)
[3]
  clotting onset time with 150 nM peptide, 0.6 nM thrombin and 1.2 µM antibody: 230 s

## P3162, Bbs-R-(D-Pip)-Gly-(Ser-Pro-His-Tyr(P)-Glu-Lys-Val-Ser-Gly)2-Asp-Phe-Glu-Glu-Ile-Pro-Glu-Glu-Tyr-Leu-Gln (peptide)
Human α-thrombin (human) [1]
  IC50, nM (25° C.), fibrinogen clotting assay: 19 nM
